{"source": "patent US20200223885A1", "binders": {"B1": {"name": "Fc-binding protein FcR9_F (FcR9 with Val192Phe) (receptor)", "chain": "KIEEAMGMRTEDLPKAEVILEPQWNRVLEKDSVTLKCRGAYSPEDNSTQWFHNESLISSQASSYLIDAATVDDSGEYRCQTSLSTLSDPVQLEVHIGWLLLQAPRWEFKEGDPIHLRCHSWKNTALHKVTYLQNGKGRKYFHHNSDFYIPKATLKDSGSYSCRGLFGSKNVSSETVNITITQGGHHHHHH"}}, "target": "IgG1 (manufactured by Sigma-Aldrich)", "test": "SPR (Biacore T100), Fc-binding protein amine-coupled to CM5, IgG1 as analyte"}
{"binder": "B1", "values": [{"measurement": "Kd", "value": 3.28, "unit": "µM"}, {"measurement": "koff", "value": 0.301, "unit": "s⁻¹"}, {"measurement": "kon", "value": 90200, "unit": "M⁻¹ s⁻¹"}]}
